Five substances from patent publication US4851521A, “Esters of hyaluronic acid” (priority 1985, dated 1989) can be followed below.

The nature of data set [1]: Absorption and bioavailability: plasma levels of hydrocortisone in rats. The format is in vivo, male Sprague-Dawley rats. The conditions noted are these: s.c.; for average plasmatic level of hydrocortisone: average of 4 values; for Ka: HYC 6.5 mg/kg. The procedure: Male Sprague-Dawley rats, with a body weight of 250-350 gr were used, obtained from Charles River-Calco (Como), fed ad libitum with water and compound feed in pellets, with the code name of 4RF 21, produced by "Italiana Mangimi", licensee of Charles River.
Hydrocortisone was administered in the form of sodium hemisuccinate salt at the dose of 1.34 mg/kg (corresponding to 1 mg/kg of hydrocortisone base) by general intravenous route and at the dose of 1.34 mg/kg and 2.68 mg/ kg (corresponding to 2 mg/ kg of hydrocortisone base) by subcutaneouos route (the i.v. route was considered in order to determine the pharmacokinetic parameters which serve as a comparison for the evaluation of absorption of any other administration route).
The three HYC derivatives were administered by subcutaneous route at the dose of 6.5 and 13 mg/kg (doses corresponding to about 1 and 2 mg/kg in hydrocortisone base). […] All the compounds were injected at a constant volume of 1 ml/kg.
After administration, 0.3 ml of blood was drawn from each animal by cardiac puncture in the presence of anticoagulant (sodium heparin).
Blood drawing times were as follows: *15 mins, 30 mins, 60 mins, 120 mins, 180 min, 300 mins, 360 mins, 420 mins, 480 mins (*limited to the intraveneous route).
The hydrocortisone was dosed by radioimmunoassay method (Cortisolo Kit, Biodata, cod. 10394) using iodate tracing. […] The linearity of the method comes between 1 and 1000 ng/ml. The observation limit is 1 ng/ml.
The dosage of the cortisolemia in the rat is not influenced either by the base levels or by the circadian rhythms of this hormone, as the metabolic pattern of the endogenous glucocorticoid hormones in the rat, leads to the production of corticosterone and not cortisol (see E. L. Green: Biology of the laboratory mouse.)
In Table 3 are reported the results of the average plasma levels of hydrocortisone, after i.v. and s.c. injection (1 and 2 mg/kg). […] In Table 4 are reported the pharmacokinetic parameters of cortisol calculated graphically from the plasmatic decline curves. In Table 3 are reported the average levels of cortisol after subcutaneous administration of the three HYC derivatives at doses of 6.5 and 13 mg/kg (corresponding to about 1 and 2 mg/kg in hydrocortisone base). In Table 4 are reported the pharmacokinetic parameters relative to cortisol calculated graphically with the method of residues from the plasma absorption curve of the three HYC products.

Data set [2] has as its system dextran-induced aseptic (exudative) phlogosis in rabbit eye. Nature of the data set: Anti-inflammatory activity: dextran-induced aseptic (exudative) phlogosis in rabbit eye. Type of data set: in vivo. The conditions noted are these: for eyes without signs of phlogosis out of the total number of eyes treated: 3 drops every 6 hours, 4 treated eyes. How it is done: 9 hyaluronic esters of cortisone, hydrocortisone and fluorocortisone (9 fluorohydrocortisone) identified by the code names HYC1-HYC9 were tested. Table 1 describes these compounds and gives the percentages of the number of carboxylic groups of HY which are esterified with the above corticosteroids, and where applicable the percentage esterified with simple aliphatic alcohols and those salified with alkaline metals (Na):
Aseptic (exudative) phlogosis was induced in 48 rabbits by intraocular injection of dextran (1% in saline, 0.1 ml). The various products were administered by instillation in the right eye (RE) of the rabbits, while in the left eye (LE) only vehicle was instilled.
The treament (3 drops every 6 hours) was begun immediately after the injection of dextran and was continued for 16 days.
Both eyes of each rabbit were observed through a slit lamp. In particular the following were examined: the state of the conjunctiva and corneal epithelium, the anterior chamber (presence of Tyndall effect), state of the iris and of the posterior segment of the eye. With a Goldmann lens, the state of the back of the eye was examined. The presence of signs of inflammation (hyperemia, exudate, cloudiness of the liquids, etc.) was recorded.
Values are expressed as percentages (number of eyes without signs of phlogosis out of the total number of eyes treated). In brackets are the number of treated eyes.

For the next data set, the system named is horny layer (skin). Nature of the data set: Skin hydration after topical application (corneometer). The format is in vivo, human (healthy volunteers). The conditions noted are these: 0.2% in ointment, single administration, average for 10 subjects. How it is done:
In order to establish a comparison between hyaluronic acid and its derivatives of the present invention, some experiments were carried out to instrumentally evaluate, after topical application, the hydrating properties of the compounds in examination. All the compounds were […] concentration of 0.2% in an ointment the composition of which was as follows: […] Each volunteer was treated (single administration) with all the formulations in examination, which were applied (1 gr./ointment) to the inside surface of each forearm, distinguishing with a dermographic pencil the application zone (about 25 cm^2) of each product and standardizing the procedure as far as possible. To the right forearm were applied the compounds known as […]9, while to the left were applied HYAFF10, placebo and hyaluronic acid. […] Most particularly, the dielectric strength of the water was measured (in 0.8 seconds), after application of the sensor (condenser) to the skin surface. […] Registrations were carried out in constant humidity conditions.

Where [3] appears, read: 10 days from start of phlogosis.
Where [4] appears, read: 12 days from start of phlogosis.
[5] abbreviates: 14 days from start of phlogosis.
The mark [6] stands for this setting: 16 days from start of phlogosis.

Regarding “(mixed) ethanol and hydrocortisone ester (C21) of hyaluronic acid (HY) [HYC5]”, the “average plasmatic level of hydrocortisone” value (shortened to “average plasmatic level”) was found to be 33.41 ng/mL in data set [1] (6.5 mg/kg, 30 min); 49.52 ng/mL in data set [1] (6.5 mg/kg, 60 min); 60.52 ng/mL in data set [1] (6.5 mg/kg, 120 min); 61.17 ng/mL in data set [1] (6.5 mg/kg, 180 min); 42.44 ng/mL in data set [1] (6.5 mg/kg, 360 min); 30.43 ng/mL in data set [1] (6.5 mg/kg, 420 min). The “average plasmatic level” value was found to be 25.85 ng/mL in data set [1] (6.5 mg/kg, 480 min); 26.55 ng/mL in data set [1] (13 mg/kg, 30 min); 38.77 ng/mL in data set [1] (13 mg/kg, 60 min); 41.56 ng/mL in data set [1] (13 mg/kg, 120 min); 44.81 ng/mL in data set [1] (13 mg/kg, 180 min); 32.51 ng/mL in data set [1] (13 mg/kg, 300 min). Also, the “average plasmatic level” value in data set [1] (13 mg/kg, 360 min) stood at 31.92 ng/mL; in data set [1] (13 mg/kg, 420 min) it was 26.17 ng/mL; in data set [1] (13 mg/kg, 480 min), 22.54 ng/mL. In data set [1], this substance showed a Ka of 0.65 h⁻¹. Further, the “eyes without signs of phlogosis out of the total number of eyes treated” value in data set [2] (2 days from start of phlogosis) is listed as 0.0%; in data set [2] (4 days from start of phlogosis) it was 0.0%; in data set [2] (6 days from start of phlogosis), 25.0%; in data set [2] (8 days from start of phlogosis) it was 50.0%; in data set [2] (setting [3]) it was 50.0%; in data set [2] (setting [4]), 100.0%. Also, the “eyes without signs of phlogosis out of the total number of eyes treated” value in data set [2] (setting [5]) and in data set [2] (setting [6]) was 100.0% throughout. In data set [2] (compared with the corresponding cortisones), the “antiinflammatory activity (in words)” value is recorded as “most efficient of these derivatives”.

On to “(partial and mixed) ethanol and hydrocortisone ester (LC21) of hyaluronic acid (HY) [HYC8]”, for which the “average plasmatic level” value in data set [1] (6.5 mg/kg, 30 min) turned out to be 33.75 ng/mL; in data set [1] (6.5 mg/kg, 60 min), 45.23 ng/mL; in data set [1] (6.5 mg/kg, 120 min), 44.75 ng/mL; in data set [1] (6.5 mg/kg, 180 min) it was 41.80 ng/mL; in data set [1] (6.5 mg/kg, 300 min), 30.00 ng/mL; in data set [1] (6.5 mg/kg, 360 min) it was 26.10 ng/mL. The “average plasmatic level” value came to 20.50 ng/mL in data set [1] (6.5 mg/kg, 420 min); 17.60 ng/mL in data set [1] (6.5 mg/kg, 480 min); 34.62 ng/mL in data set [1] (13 mg/kg, 30 min); 51.69 ng/mL in data set [1] (13 mg/kg, 60 min); 108.01 ng/mL in data set [1] (13 mg/kg, 120 min); 76.64 ng/mL in data set [1] (13 mg/kg, 180 min). Also, the “average plasmatic level” value in data set [1] (13 mg/kg, 300 min) stood at 54.66 ng/mL; in data set [1] (13 mg/kg, 360 min), 47.17 ng/mL; in data set [1] (13 mg/kg, 420 min), 42.60 ng/mL; in data set [1] (13 mg/kg, 480 min) it was 37.03 ng/mL. For the same substance, the Ka in data set [1] was 0.94 h⁻¹. In addition, the “eyes without signs of phlogosis out of the total number of eyes treated” value in data set [2] (2 days from start of phlogosis) turned out to be 0.0%; in data set [2] (4 days from start of phlogosis) it was 0.0%; in data set [2] (6 days from start of phlogosis) it was 0.0%; in data set [2] (8 days from start of phlogosis), 25.0%; in data set [2] (setting [3]), 50.0%; in data set [2] (setting [4]), 100.0%. In addition, the “eyes without signs of phlogosis out of the total number of eyes treated” value in data set [2] (setting [5]) and in data set [2] (setting [6]) was 100.0% each time.

Regarding “(partial) butyl ester of hyaluronic acid (HY) [HYAFF10]”, in the data set with horny layer (skin), the “x Δ% degree of hydration of the corneal layer, 1st hr” value is listed as 68.8%; the “x Δ% degree of hydration of the corneal layer, 3rd hr” value is listed as 57.0%; the “x Δ% degree of hydration of the corneal layer, 6th hr” value is 27.5%; the “x Δ% degree of hydration of the corneal layer, 24th hr” value stood at 8.3%.

For “(partial) hydrocortisone ester (C21) of hyaluronic acid (HY) [HYC2]”, the “average plasmatic level” value in data set [1] (6.5 mg/kg, 30 min) was 27.02 ng/mL; in data set [1] (6.5 mg/kg, 60 min), 35.67 ng/mL; in data set [1] (6.5 mg/kg, 120 min), 42.32 ng/mL; in data set [1] (6.5 mg/kg, 180 min), 37.35 ng/mL; in data set [1] (6.5 mg/kg, 300 min), 32.27 ng/mL; in data set [1] (6.5 mg/kg, 360 min) it was 26.96 ng/mL. The “average plasmatic level” value in data set [1] (6.5 mg/kg, 420 min) worked out at 24.24 ng/mL; in data set [1] (6.5 mg/kg, 480 min), 18.92 ng/mL; in data set [1] (13 mg/kg, 30 min) it was 32.32 ng/mL; in data set [1] (13 mg/kg, 60 min), 50.51 ng/mL; in data set [1] (13 mg/kg, 120 min) it was 62.42 ng/mL; in data set [1] (13 mg/kg, 180 min) it was 58.44 ng/mL. The “average plasmatic level” value in data set [1] (13 mg/kg, 300 min) was found to be 51.68 ng/mL; in data set [1] (13 mg/kg, 360 min) it was 48.17 ng/mL; in data set [1] (13 mg/kg, 420 min), 44.67 ng/mL; in data set [1] (13 mg/kg, 480 min) it was 39.41 ng/mL. The substance further came in with a Ka in data set [1] of 0.86 h⁻¹. The “eyes without signs of phlogosis out of the total number of eyes treated” value in data set [2] (2 days from start of phlogosis) stood at 0.0%; in data set [2] (4 days from start of phlogosis) it was 0.0%; in data set [2] (6 days from start of phlogosis), 0.0%; in data set [2] (8 days from start of phlogosis), 25.0%; in data set [2] (setting [3]), 50.0%; in data set [2] (setting [4]) it was 100.0%. Further, the “eyes without signs of phlogosis out of the total number of eyes treated” value in data set [2] (setting [5]) and in data set [2] (setting [6]) was 100.0% each time.

With HYALURONIC ACID [reference compound], in the data set on horny layer (skin), the “x Δ% degree of hydration of the corneal layer, 1st hr” value worked out at 54.7%; the “x Δ% degree of hydration of the corneal layer, 3rd hr” value came to 37.6%; the “x Δ% degree of hydration of the corneal layer, 6th hr” value came to 19.7%; the “x Δ% degree of hydration of the corneal layer, 24th hr” value is 5.3%.
